From patent US20180092966A1 (CSL, published 2018)

How the values were obtained:
[1] = target: T1, VWF-FP E1015C mutant (albumin-fused von Willebrand Factor) (human); assay: covalent-FVIII ELISA over FVIII activity assay
T1 construct: Stably expressed in CHO cells with furin co-transfected; also called VWF-FP mutant E1015C; Cys residue at VWF aa position 1015; not shown: linker between VWF and albumin, made in analogy to WO 2009/156137

[2] = target: T2, VWF-FP R768C mutant (albumin-fused von Willebrand Factor) (human); assay: covalent-FVIII ELISA over FVIII activity assay
T2 construct: Stably expressed in CHO cells with furin co-transfected; also called VWF-FP mutant R768C; Cys residue at VWF aa position 768; not shown: linker between VWF and albumin, made in analogy to WO 2009/156137
T2 sequence (chain, as listed by the source R768C R768C): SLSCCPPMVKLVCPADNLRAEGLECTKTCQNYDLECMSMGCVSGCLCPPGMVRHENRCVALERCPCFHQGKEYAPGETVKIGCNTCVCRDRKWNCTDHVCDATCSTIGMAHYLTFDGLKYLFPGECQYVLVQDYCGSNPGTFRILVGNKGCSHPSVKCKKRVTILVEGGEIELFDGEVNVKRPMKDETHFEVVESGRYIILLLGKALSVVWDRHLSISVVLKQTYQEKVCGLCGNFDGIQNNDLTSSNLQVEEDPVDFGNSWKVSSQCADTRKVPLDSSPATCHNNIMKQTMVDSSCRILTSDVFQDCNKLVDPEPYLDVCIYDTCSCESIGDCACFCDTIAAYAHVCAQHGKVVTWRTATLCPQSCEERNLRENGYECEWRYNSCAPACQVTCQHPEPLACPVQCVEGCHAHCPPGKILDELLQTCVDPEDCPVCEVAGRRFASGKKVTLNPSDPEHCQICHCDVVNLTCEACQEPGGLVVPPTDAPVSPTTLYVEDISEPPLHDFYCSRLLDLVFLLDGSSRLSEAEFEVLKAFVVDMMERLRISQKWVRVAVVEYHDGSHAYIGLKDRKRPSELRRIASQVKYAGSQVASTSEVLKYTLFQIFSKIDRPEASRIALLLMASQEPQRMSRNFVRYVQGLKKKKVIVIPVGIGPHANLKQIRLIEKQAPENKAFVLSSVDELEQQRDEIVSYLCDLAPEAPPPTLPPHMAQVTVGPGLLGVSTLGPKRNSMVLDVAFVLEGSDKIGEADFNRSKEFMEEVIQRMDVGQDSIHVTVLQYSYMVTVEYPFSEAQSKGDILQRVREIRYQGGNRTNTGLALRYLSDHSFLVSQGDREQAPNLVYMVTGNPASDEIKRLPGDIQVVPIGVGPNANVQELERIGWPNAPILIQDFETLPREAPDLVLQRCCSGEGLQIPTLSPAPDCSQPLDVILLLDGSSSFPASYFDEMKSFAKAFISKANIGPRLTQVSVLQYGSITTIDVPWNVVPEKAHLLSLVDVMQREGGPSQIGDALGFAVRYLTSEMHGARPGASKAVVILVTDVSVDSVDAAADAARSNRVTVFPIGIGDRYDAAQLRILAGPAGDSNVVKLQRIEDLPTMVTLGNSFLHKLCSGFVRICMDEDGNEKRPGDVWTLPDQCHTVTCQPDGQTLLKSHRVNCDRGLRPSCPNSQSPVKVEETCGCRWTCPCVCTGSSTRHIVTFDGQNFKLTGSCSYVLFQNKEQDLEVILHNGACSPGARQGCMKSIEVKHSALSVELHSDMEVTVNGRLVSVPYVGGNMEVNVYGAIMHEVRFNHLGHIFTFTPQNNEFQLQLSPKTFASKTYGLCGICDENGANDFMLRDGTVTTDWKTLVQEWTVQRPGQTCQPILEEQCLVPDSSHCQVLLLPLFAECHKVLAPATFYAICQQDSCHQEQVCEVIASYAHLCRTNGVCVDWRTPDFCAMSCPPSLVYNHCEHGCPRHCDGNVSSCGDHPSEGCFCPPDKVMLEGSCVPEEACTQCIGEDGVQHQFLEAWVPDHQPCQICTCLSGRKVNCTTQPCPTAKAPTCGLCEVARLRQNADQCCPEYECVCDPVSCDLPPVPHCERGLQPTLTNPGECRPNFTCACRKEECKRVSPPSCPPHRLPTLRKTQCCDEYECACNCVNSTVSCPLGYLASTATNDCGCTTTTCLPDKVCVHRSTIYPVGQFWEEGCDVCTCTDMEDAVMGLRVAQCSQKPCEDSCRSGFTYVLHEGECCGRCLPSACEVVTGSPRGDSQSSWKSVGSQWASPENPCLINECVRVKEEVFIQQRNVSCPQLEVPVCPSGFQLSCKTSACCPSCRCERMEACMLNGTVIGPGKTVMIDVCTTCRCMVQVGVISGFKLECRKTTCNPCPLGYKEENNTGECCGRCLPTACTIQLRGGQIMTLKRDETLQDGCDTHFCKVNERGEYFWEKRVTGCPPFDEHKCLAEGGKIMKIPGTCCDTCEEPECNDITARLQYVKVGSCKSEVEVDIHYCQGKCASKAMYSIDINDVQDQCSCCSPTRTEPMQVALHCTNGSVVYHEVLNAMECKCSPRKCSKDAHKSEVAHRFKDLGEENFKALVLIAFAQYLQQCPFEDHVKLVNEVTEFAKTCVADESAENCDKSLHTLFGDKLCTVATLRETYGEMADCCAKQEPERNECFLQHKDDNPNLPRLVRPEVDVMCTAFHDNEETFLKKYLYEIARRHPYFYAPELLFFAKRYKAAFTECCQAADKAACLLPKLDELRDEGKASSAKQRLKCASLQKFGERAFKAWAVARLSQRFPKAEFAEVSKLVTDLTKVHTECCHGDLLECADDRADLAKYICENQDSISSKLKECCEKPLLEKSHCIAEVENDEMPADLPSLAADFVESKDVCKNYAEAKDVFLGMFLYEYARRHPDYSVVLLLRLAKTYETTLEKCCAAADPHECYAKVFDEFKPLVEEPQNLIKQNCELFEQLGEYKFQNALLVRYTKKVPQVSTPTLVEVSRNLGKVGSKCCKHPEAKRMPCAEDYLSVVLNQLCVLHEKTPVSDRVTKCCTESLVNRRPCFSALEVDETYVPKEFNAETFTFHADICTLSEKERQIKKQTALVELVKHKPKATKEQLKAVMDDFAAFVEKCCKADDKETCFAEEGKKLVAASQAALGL

[3] = target: T3, VWF-FP L984C mutant (albumin-fused von Willebrand Factor) (human); assay: covalent-FVIII ELISA over FVIII activity assay
T3 construct: Stably expressed in CHO cells with furin co-transfected; also called VWF-FP mutant L984C; Cys residue at VWF aa position 984; not shown: linker between VWF and albumin, made in analogy to WO 2009/156137
T3 sequence (chain, as listed by the source L984C L984C): as the sequence (chain, as listed by the source R768C R768C) above, with C5R, L221C counted along it

[4] = target: T4, VWF-FP H817C mutant (albumin-fused von Willebrand Factor) (human); assay: covalent-FVIII ELISA over FVIII activity assay
T4 construct: Stably expressed in CHO cells with furin co-transfected; also called VWF-FP mutant H817C; Cys residue at VWF aa position 817; not shown: linker between VWF and albumin, made in analogy to WO 2009/156137
T4 sequence (chain, as listed by the source H817C H817C): as the sequence (chain, as listed by the source R768C R768C) above, with C5R, H54C counted along it

[5] = target: T5, VWF-FP N1134C mutant (albumin-fused von Willebrand Factor) (human); assay: covalent-FVIII ELISA over FVIII activity assay
T5 construct: Stably expressed in CHO cells with furin co-transfected; also called VWF-FP mutant N1134C; Cys residue at VWF aa position 1134; not shown: linker between VWF and albumin, made in analogy to WO 2009/156137
T5 sequence (chain, as listed by the source N1134C N1134C): as the sequence (chain, as listed by the source R768C R768C) above, with C5R, N371C counted along it

[6] = target: T6, VWF-FP K1116C mutant (albumin-fused von Willebrand Factor) (human); assay: covalent-FVIII ELISA over FVIII activity assay
T6 construct: Stably expressed in CHO cells with furin co-transfected; also called VWF-FP mutant K1116C; Cys residue at VWF aa position 1116; not shown: linker between VWF and albumin, made in analogy to WO 2009/156137
T6 sequence (chain, as listed by the source K1116C K1116C): as the sequence (chain, as listed by the source R768C R768C) above, with C5R, K353C counted along it

[7] = target: T1, VWF-FP E1015C mutant (albumin-fused von …); assay: ELISA of co-expression supernatant: anti-VWF capture, 350 mM CaCl2 wash, anti-FVIII detection
[8] = target: T2, VWF-FP R768C mutant (albumin-fused von …); assay: as above
[9] = target: T3, VWF-FP L984C mutant (albumin-fused von …); assay: as above
[10] = target: T4, VWF-FP H817C mutant (albumin-fused von …); assay: as above
[11] = target: T5, VWF-FP N1134C mutant (albumin-fused von …); assay: as above
[12] = target: T6, VWF-FP K1116C mutant (albumin-fused von …); assay: as above
[13] = target: T1, VWF-FP E1015C mutant (albumin-fused von …); assay: covalent-FVIII ELISA over FVIII antigen ELISA
[14] = target: T2, VWF-FP R768C mutant (albumin-fused von …); assay: covalent-FVIII ELISA over FVIII antigen ELISA
[15] = target: T3, VWF-FP L984C mutant (albumin-fused von …); assay: covalent-FVIII ELISA over FVIII antigen ELISA
[16] = target: T4, VWF-FP H817C mutant (albumin-fused von …); assay: covalent-FVIII ELISA over FVIII antigen ELISA
[17] = target: T5, VWF-FP N1134C mutant (albumin-fused von …); assay: covalent-FVIII ELISA over FVIII antigen ELISA
[18] = target: T6, VWF-FP K1116C mutant (albumin-fused von …); assay: covalent-FVIII ELISA over FVIII antigen ELISA

T1 sequence (chain, as listed by the source E1015C E1015C): as the sequence (chain, as listed by the source R768C R768C) above, with C5R, E252C counted along it

B1: Factor VIII SingleChain P1688C mutant (other)
chain: ATRRYYLGAVELSWDYMQSDLGELPVDARFPPRVPKSFPFNTSVVYKKTLFVEFTDHLFNIAKPRPPWMGLLGPTIQAEVYDTVVITLKNMASHPVSLHAVGVSYWKASEGAEYDDQTSQREKEDDKVFPGGSHTYVWQVLKENGPMASDPLCLTYSYLSHVDLVKDLNSGLIGALLVCREGSLAKEKTQTLHKFILLFAVFDEGKSWHSETKNSLMQDRDAASARAWPKMHTVNGYVNRSLPGLIGCHRKSVYWHVIGMGTTPEVHSIFLEGHTFLVRNHRQASLEISPITFLTAQTLLMDLGQFLLFCHISSHQHDGMEAYVKVDSCPEEPQLRMKNNEEAEDYDDDLTDSEMDVVRFDDDNSPSFIQIRSVAKKHPKTWVHYIAAEEEDWDYAPLVLAPDDRSYKSQYLNNGPQRIGRKYKKVRFMAYTDETFKTREAIQHESGILGPLLYGEVGDTLLIIFKNQASRPYNIYPHGITDVRPLYSRRLPKGVKHLKDFPILPGEIFKYKWTVTVEDGPTKSDPRCLTRYYSSFVNMERDLASGLIGPLLICYKESVDQRGNQIMSDKRNVILFSVFDENRSWYLTENIQRFLPNPAGVQLEDPEFQASNIMHSINGYVFDSLQLSVCLHEVAYWYILSIGAQTDFLSVFFSGYTFKHKMVYEDTLTLFPFSGETVFMSMENPGLWILGCHNSDFRNRGMTALLKVSSCDKNTGDYYEDSYEDISAYLLSKNNAIEPRSFSQNSRHRSTRQKQFNATTIPENTTLQSDQEEIDYDDTISVEMKKEDFDIYDEDENQSCRSFQKKTRHYFIAAVERLWDYGMSSSPHVLRNRAQSGSVPQFKKVVFQEFTDGSFTQPLYRGELNEHLGLLGPYIRAEVEDNIMVTFRNQASRPYSFYSSLISYEEDQRQGAEPRKNFVKPNETKTYFWKVQHHMAPTKDEFDCKAWAYFSDVDLEKDVHSGLIGPLLVCHTNTLNPAHGRQVTVQEFALFFTIFDETKSWYFTENMERNCRAPCNIQMEDPTFKENYRFHAINGYIMDTLPGLVMAQDQRIRWYLLSMGSNENIHSIHFSGHVFTVRKKEEYKMALYNLYPGVFETVEMLPSKAGIWRVECLIGEHLHAGMSTLFLVYSNKCQTPLGMASGHIRDFQITASGQYGQWAPKLARLHYSGSINAWSTKEPFSWIKVDLLAPMIIHGIKTQGARQKFSSLYISQFIIMYSLDGKKWQTYRGNSTGTLMVFFGNVDSSGIKHNIFNPPIIARYIRLHPTHYSIRSTLRMELMGCDLNSCSMPLGMESKAISDAQITASSYFTNMFATWSPSKARLHLQGRSNAWRPQVNNPKEWLQVDFQKTMKVTGVTTQGVKSLLTSMYVKEFLISSSQDGHQWTLFFQNGKVKVFQGNQDSFTPVVNSLDPPLLTRYLRIHPQSWVHQIALRMEVLGCEAQDLY
notes: Single-chain FVIII with partial B-domain deletion; also called FVIII-SC P1688C; Cys residue at FVIII aa position 1688
ratio covalent FVIII/Total FVIII activity [1]: 1.59
ratio covalent FVIII/Total FVIII activity [2]: 18.8
ratio covalent FVIII/Total FVIII activity [3]: 2.45
ratio covalent FVIII/Total FVIII activity [4]: 1.89
ratio covalent FVIII/Total FVIII activity [5]: 1.87
ratio covalent FVIII/Total FVIII activity [6]: 0.61
covalent FVIII [7]: 1080 amU/ml
covalent FVIII [8]: 2060 amU/ml
covalent FVIII [9]: 1900 amU/ml
covalent FVIII [10]: 367 amU/ml
covalent FVIII [11]: 650 amU/ml
covalent FVIII [12]: 666 amU/ml
ratio covalent FVIII/Total FVIII antigen [13]: 0.53
ratio covalent FVIII/Total FVIII antigen [14]: 2.13
ratio covalent FVIII/Total FVIII antigen [15]: 0.96
ratio covalent FVIII/Total FVIII antigen [16]: 0.29
ratio covalent FVIII/Total FVIII antigen [17]: 6.11
ratio covalent FVIII/Total FVIII antigen [18]: 1.89
